Measurements published in patent US20250352661A1 (MYTHIC THERAPEUTICS, published 2025).
Numbering of substitutions follows the chain as printed. Numbers in names are those of the source.

T1: Human LRRC15 Protein, His Tag (Acro Biosystems) (human, UniProt Q8TF66 22-538, limits assumed)
T1 construct: Bought protein with His tag
T1 sequence (looked up): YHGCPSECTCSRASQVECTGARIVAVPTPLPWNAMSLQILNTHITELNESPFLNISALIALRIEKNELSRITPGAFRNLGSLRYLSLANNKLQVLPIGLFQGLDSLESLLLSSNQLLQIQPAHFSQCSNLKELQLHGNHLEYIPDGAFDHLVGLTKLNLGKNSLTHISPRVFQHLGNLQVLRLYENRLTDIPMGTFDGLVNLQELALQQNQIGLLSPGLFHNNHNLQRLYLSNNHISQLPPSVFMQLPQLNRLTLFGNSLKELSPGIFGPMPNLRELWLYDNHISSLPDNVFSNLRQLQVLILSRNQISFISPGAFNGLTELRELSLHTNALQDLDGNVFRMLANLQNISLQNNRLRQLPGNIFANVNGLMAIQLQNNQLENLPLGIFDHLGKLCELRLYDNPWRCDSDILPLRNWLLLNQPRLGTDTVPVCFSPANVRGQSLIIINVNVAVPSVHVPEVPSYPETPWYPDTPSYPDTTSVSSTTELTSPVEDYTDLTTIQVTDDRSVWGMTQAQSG

T2: Human LRRC15 Protein, His Tag (Acro Biosystems) (human, UniProt Q8TF66 22-538, limits assumed)
T2 sequence (looked up): T1 sequence (looked up)

T3: LRRC15 on the surface of LRRC15+ cells (SAOS-2, U87MG) (UniProt Q8TF66 22-581, limits assumed)
T3 sequence (looked up): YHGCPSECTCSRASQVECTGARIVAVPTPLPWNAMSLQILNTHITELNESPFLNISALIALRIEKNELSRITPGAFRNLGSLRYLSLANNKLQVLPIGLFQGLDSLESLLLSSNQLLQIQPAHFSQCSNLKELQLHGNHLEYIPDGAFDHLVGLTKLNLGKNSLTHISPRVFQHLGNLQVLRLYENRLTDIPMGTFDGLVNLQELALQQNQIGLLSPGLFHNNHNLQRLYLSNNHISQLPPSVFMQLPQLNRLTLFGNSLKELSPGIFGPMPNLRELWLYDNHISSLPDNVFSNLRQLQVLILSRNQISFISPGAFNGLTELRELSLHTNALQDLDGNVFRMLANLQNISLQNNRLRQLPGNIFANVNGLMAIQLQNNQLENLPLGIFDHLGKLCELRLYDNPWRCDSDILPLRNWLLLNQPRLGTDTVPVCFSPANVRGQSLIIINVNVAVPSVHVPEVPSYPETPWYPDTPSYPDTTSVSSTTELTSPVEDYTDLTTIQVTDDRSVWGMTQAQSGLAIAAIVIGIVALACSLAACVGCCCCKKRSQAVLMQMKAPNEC

B1: MYT6143 (antibody, V domains shown)
VH: QEQLEESGGDLVKPGASLTLTCTASGLDFRRTNYICWVRQAPGKGLEWIGCIYIADVVHYYASWAKGRFTFSKTSSTTVTLQMTSLTAADTATYFCARGADGGFVYGMDLWGPGTLVTVSS
VL: DVVMTQTPASVSEPVGGTVTIKCQASQSIGNYLSWYQQKPGQRPKRLIYSASTLPSGVPSRFKGAGSGTEFTLTISDLESADAATYYCQNNHWLAGYGHPFGGGTEVVVK
notes: rabbit 15G7 VL Y92H; chimeric, human constant regions
B2: MYT6149 (antibody, V domains shown)
VH: B1 VH
VL: B1 VL with H92Y, G98H
notes: rabbit 15G7 VL G98H; chimeric, human constant regions
B3: MYT6140 (antibody, V domains shown)
VH: B1 VH
VL: B1 VL with Q89H, H92Y
notes: rabbit 15G7 VL Q89H; chimeric, human constant regions
B4: MYT6137 (antibody, V domains shown)
VH: B1 VH
VL: B1 VL with L54H, H92Y
notes: rabbit 15G7 VL L54H; chimeric, human constant regions
B5: MYT6147 (antibody, V domains shown)
VH: B1 VH
VL: B1 VL with H92Y, G96H
notes: rabbit 15G7 VL G96H; chimeric, human constant regions
B6: MYT6146 (antibody, V domains shown)
VH: B1 VH
VL: B1 VL with H92Y, A95H
notes: rabbit 15G7 VL A95H; chimeric, human constant regions
B7: MYT6142 (antibody, V domains shown)
VH: B1 VH
VL: B1 VL with N91H, H92Y
notes: rabbit 15G7 VL N91H; chimeric, human constant regions
B8: MYT6145 (antibody, V domains shown)
VH: B1 VH
VL: B1 VL with H92Y, L94H
notes: rabbit 15G7 VL L94H; chimeric, human constant regions
B9: MYT6144 (antibody, V domains shown)
VH: B1 VH
VL: B1 VL with H92Y, W93H
notes: rabbit 15G7 VL W93H; chimeric, human constant regions
B10: MYT6141 (antibody, V domains shown)
VH: B1 VH
VL: B1 VL with N90H, H92Y
notes: rabbit 15G7 VL N90H; chimeric, human constant regions
B11: MYT6136 (antibody, V domains shown)
VH: B1 VH
VL: B1 VL with T53H, H92Y
notes: rabbit 15G7 VL T53H; chimeric, human constant regions
B12: MYT6148 (antibody, V domains shown)
VH: B1 VH
VL: B1 VL with H92Y, Y97H
notes: rabbit 15G7 VL Y97H; chimeric, human constant regions
B13: MYT6133 (antibody, V domains shown)
VH: B1 VH
VL: B1 VL with S50H, H92Y
notes: rabbit 15G7 VL S50H; chimeric, human constant regions
B14: MYT6151 (antibody, V domains shown)
VH: B1 VH
VL: B1 VL with H92Y, P100H
notes: rabbit 15G7 VL P100H; chimeric, human constant regions
B15: MYT6132 (antibody, V domains shown)
VH: B1 VH
VL: B1 VL with S34H, H92Y
notes: rabbit 15G7 VL S34H; chimeric, human constant regions
B16: MYT6134 (antibody, V domains shown)
VH: B1 VH
VL: B1 VL with A51H, H92Y
notes: rabbit 15G7 VL A51H; chimeric, human constant regions
B17: MYT6138 (antibody, V domains shown)
VH: B1 VH
VL: B1 VL with P55H, H92Y
notes: rabbit 15G7 VL P55H; chimeric, human constant regions
B18: MYT6139 (antibody, V domains shown)
VH: B1 VH
VL: B1 VL with S56H, H92Y
notes: rabbit 15G7 VL S56H; chimeric, human constant regions
B19: MYT6135 (antibody, V domains shown)
VH: B1 VH
VL: B1 VL with S52H, H92Y
notes: rabbit 15G7 VL S52H; chimeric, human constant regions
B20: MYT6150 (antibody, V domains shown)
VH: B1 VH
VL: B1 VL with H92Y, H99A
notes: rabbit 15G7 VL H99A; chimeric, human constant regions
B21: MYT5712 (antibody, V domains shown)
VH: B1 VH
VL: B1 VL with H92Y
notes: chimeric antibody (rabbit variable domains, human constant regions); also called 15G7; chimeric 15G7 RabMAb
B22: MYT6084 (antibody, V domains shown)
VH: B1 VH with R30H
VL: B1 VL with H92Y
notes: chimeric rabbit 15G7 variant (rabbit variable domains, human constant regions); also called 15G7 VH R30H
B23: MYT3315 (antibody, V domains shown)
VH: EVQLVESGGGLVQPGGSLRLSCAVSGFSLTSYGVHWVRQATGKGLEWLGVIWAGGSTNYNSALMSRLTISKENAKSSVYLQMNSLRAGDTAMYYCATHMITEDYYGMDYWGQGTTVTVSS
VL: DIVMTQSPDSLAVSLGERATINCKSSQSLLNSRTRKNYLAWYQQKPGQSPKLLIYWASTRHSGVPDRFSGSGSGTDFTLTISSLQAEDVAVYYCKQSYNLPTFGGGTKVEIK
B24: MYT9776 (antibody, V domains shown)
VH: EVQLVESGGGLVQPGGSLRLSCTASGFSFSGHYWICWVRQAPGKGLEWVGCIHGGSHDITYYASWAKGRFTISRDTSKNTVYLQKTSLRAEDTAVYYCASDTSYTAYGNFYFNLWGQGTLVTVSS
VL: EIVMTQSPSPLSASVGDRVIITCQSSQSVLNNNWLAWYQQKPGKAPKLLIYDASSLASGVPSRFSGSGSGAEFTLTISSLQPDDFATYYCQGEFSCGSADCNAFGQGTKLEIK
B25: MYT8415 (antibody, V domains shown)
VH: EVQLVESGGGLVQPGGSLRLSCTASGLDFRRTNYICWVRQAPGKGLEWVGCIYIADVVHYYASWAKGRFTFSRDTSKNTVYLQMNSLRAEDTAVYYCARGADGGFVYGMDLWGQGTLVTVSS
VL: EIVMTQSPSTLSASVGDRVIITCQASQSIGNYLSWYQQKPGKAPKRLIYSASTLPSGVPSRFSGSGSGAEFTLTISSLQPDDFATYYCQNNHWLAGYGHPFGQGTKLTVL

What follows are binders tested against T1, Human LRRC15 Protein, His Tag (Acro …) (assay: BLI; dissociation pH 7.4 black, pH 5.4 grey [D00008 FIG. 1F]).
Description: (§1) For each individual plot, antigen binding proteins were captured on anti-human Fc biosensors and associated with LRRC15 at pH 7.4. Dissociation was at pH 7.4 (black) or pH 5.4 (grey). Major X-axis ticks=100 seconds, with left dashed vertical line=0 seconds. Major Y-axis ticks=0.5 nm and octet plots are shown MYT5712 and MYT6080-MYT6121.
(§2) Multiple LRRC15-binding monoclonal antibodies have been described in the literature and can be used as a template for engineering pH-dependent binding. We selected discovery RabMAb clone 15G7 (rabbit VH SEQ ID NO: 378, rabbit VL SEQ ID NO: 451; humanized VH SEQ ID NO: 382, humanized VL SEQ ID NO: 455) as a LRRC15-binding monoclonal antibody for pH-engineering via histidine scanning. […] To generate pH-dependent sequence variants, individual amino acid residues within the heavy chain CDRs were systematically substituted with a histidine (or alanine if H was already present in a given position; e.g., MYT6099), one at a time (rabbit, MYT6080-6121). Desirable mutations were transferred to a humanized framework (humanized, MYT 8387-8411). After allowing for four days of protein expression, cell culture supernatants were collected, quantified by SDS-PAGE analysis, and the pH dependence of the variant was evaluated using biolayer interferometry (BLI) on an Octet RED 96e instrument. Briefly, cell culture supernatants were diluted based on qualitative expression level of the variant determined by visual examination of SDS-PAGE gels, 5 μL of cell culture supernatant was diluted into 195 μL of 1×PBST, pH 7.4 for high expressors, 25 μL of cell culture supernatant was diluted into 175 μL of 1×PBST, pH 7.4 for medium expressors and 100 μL of cell culture supernatant was diluted into 100 μL of 1×PBST, pH 7.4 for low expressors for loading onto the sensor tips.

Row | binding result | Binder
1 | binds | B1
2 | binds | B2
3 | binds | B3
4 | binds | B4
5 | binds | B5
6 | binds | B6
7 | binds | B7
8 | no binding (tested: 50 nM LRRC15) | B8
9 | binds | B9
10 | no binding (tested: 50 nM LRRC15) | B10
11 | binds | B11
12 | binds | B12
13 | binds | B13
14 | binds | B14
15 | binds | B15
16 | binds | B16
17 | binds | B17
18 | binds | B18
19 | binds | B19
20 | binds | B20

These binders were tested against T2, Human LRRC15 Protein, His Tag (Acro …) (assay: BLI; dissociation pH 7.4 black, pH 5.4 grey [1/2); D00006 FIG. 1E (1/2]).
Description: as §1, §2

Row | binding result | Binder
21 | binds | B21
22 | binds | B22

Each binder was assayed against T3, LRRC15 on the surface of LRRC15+ cells … (assay: cell-based or functional assay).

Row | Internalization in U87MG cells (10 nM, 24 hours), FOB = fold over background (IgG control) | Internalization in U87MG cells (10 nM, 24 hours), FOS = fold over samrotamab | Binder
23 | 2.57 fold over background (IgG control) | 1.83 fold over samrotamab | B23
24 | 2.69 fold over background (IgG control) | 1.97 fold over samrotamab | B24
25 | 2.53 fold over background (IgG control) | 1.79 fold over samrotamab | B25
